21 sequences from a protein production outcome set (Wang et al. 2014) can be followed below.

A short description of the series: label from the status in PepcDB records.
As for “MVTTRKPLRAAIIGLGRLGERHARHLVNKIQGVKLVAACALDSNQLEWAKNELGVETTYTNYKDMIDTENIDAIFIVAPTPFHPEMTIYAMNAGLNVFCEKPLGLDFNEVDEMAKVIKSHPNQIFQSGFMRRYDDSYRYAKKIVDNGDIGKIIYMRGYGIDPISGMESFTKFATEADSGGIFVDMNIHDIDLIRWFTGQDPVQAYGLTSNIAAPQLADIGEFETGVAQLKMSDGVIATLIGGRHAAHGNQVELEVMGSNGWVRIGEHPDLNRVTVFNDQGVVRPSLQSFGERFDTAFTDEVQDFVNNVIVGKQPEVTVDDGIKALKIAKACQQSANIGKLVDIQL”, the protein production entry was “failed”.
As for “MHYSYLEPGLHAELAAITPDEAVAHLRNHLGNLLLDPAVTAAYINRLGVLTPEETTPSTRAWLTYLLVRYCDLLPLDLAAQRILAQVTGNAAPHLRDLERCAIPDPIERKLERLGAGEDSERNRAMLLALLHEYPYSPAIMERLMTVELALDIPVGGEWLPSVRPPAGLLRPLHERLFIHAMMQGDTERALQHAAACVPDNPSPHLLNHLAELHARLGDTQQALNLYGASLEADPLQHPVRLRMEALAKPPRAHADALHHRIAICLYSFNKAELLERTLSSLAASQTGEAHILVLLNGCTDDSATRVAAVNERLFNGRLEVIDMPINIGAPAARNWLLAKQTVREADFVAFLDDDVDVPAAWLPRLVGNLEEHPGAGVAGTRVRNPGDVPRLQYLYRNISVARPGLIRLSLDTPTLHHDTGFYDFTRSTTSVMGCCHVFTRRALDEVPAFDLRFSPSQMDDIAHDIDLALAGFDVLYTGDVVCVHHQMSGLGRANATDWKRFGNVAGNDVKFYYRFADRLDALGRLNNLGFMPDMPPALEHHHHHH”, the protein production entry is “not failed”.
The same measure for “MNLIWFLIIGGLAGWLAGLIMKGKGFGVLANIGIGIVGSFIGGFLFGLLQLSAHGAIGRLVTATVGAVLLLAIVNKIKKG”: “failed”; for “MRLTTLWQNRSPGDRHLSTYFCFAAVRLLLVFVPQLGYVHPDEFFQSVEVMTGDHFRLEHTRTWEFNNSLPVRSIVLPFALLRIPWSFYEFVAECLKAWWQLELLGTYAYVVFPRLIYTLISFSNDYCLFRICRLYGLRFEIRLLAMGSSWILLVFGTRTFSNSLEMAMCSWLLCLVSECMLRTNTVVYKKEFLEEKYDKAESISERVRIWKLKNSLPAHNLQHLMAMSTICVAGVFNRPTFLLFGAPMVFFWLLRGMGTRSITFRDFNLRIALFCLCALPALVLFIFCDSLYYQHLTLGELHMMHLSIDNFVFTPWNFIKANLDSAQTASHGVHPCYVHLMVNMPMLFNVLALASLGAFAQLLLRFFRAEYQVLPRFQSIVSLMSGAIFVPLFFLSLINHQEPRFLLPVTFPLILLHAPKLITGFSAKYPFQKDHPLLRLFYDKLLSSKASGPYLLKIWYVSNVALTLFFGFIHQAGVYPLAADISHVIATKPAATHVHLITSHIYSLPLHLINIPSSRVLHFNRLTHQRYRRPRDFYMYEYGGLPLDSLLQKVKLISGSCEVKKSGPSRRRYKLYLAIPASLSADLHEALVHSNASSYLNFELLKVFYPHLSTEAFPHLQGRHPCDVDAPHWAHDDLRGTCSAEQLPAFSFAYLNKQFSSFVHQLGLALYEIDVTRNKPRYVSLAYSGCSPTKGYFLLFIQFLICLALCIAAAQAGFIASPVTTYAAAPAYAASYAAPVAYSAPVATYAAAAPAYSTYAAAAPAYSTYAAAAPAYSTYAAAAPAYTASVYSAPAYTAPVTTYAAGAAYAAPVTTYSAPAIVSPILKKK”: “failed”.
The same measure for “MYTKTKASISALLILITITLSSCSGTKNKDIYSRKNSNAAHTVATIGYDNKTYVSLKEAFKSVGGKCTLNGEGAIASKGKDIIKVSASSSTAYLNSSKIAMSANPKLKNNDIYVPMDFLNQVMDARITYSNGKLNIQTELPLKYTKAFNIKYLKGGIKKITDGNNKTVILVPKNKTVPAEYKNETVITYPVNNVLVSSATQGSLLRPLDEIKSIKTVTLKENEWEIDEIKSLLNDNKITYIGDTTSPDFEKISSSKPDVAILYGGSYGLNNMMKKFDELHINYTSDNEYLEEDPLGRLEWIKFLSAFYDKEDKAENYFNQQVSKVMATENKVSSLKKPKVAFGMVDNGKVYIPAKNSYAAKMVDMAGGDYIFKDLNNKSGYITLEDFYSKSKDADVLIYSSSKEYTPSLKSMLSAAPILKTIKPVKNKKVWCFGKDYYQAIDKTDEIIEDLASIFHPESFKGYKIKHYSHY”: “failed”.
The same measure for “MGGITITAVISNRDKVTFGEVADHYHSNKLIFGLKYFKNWVLERVAAWFPIPSWRAKFHKMRGVNLGKNVYVGYDVVFDRLHPEMITVGDYSEIGDRCILSAHSRGSLTTRQAYPRTIEPIKIGCGVSVNPGCIITQGVEIGDNSIIGIGSVVTRDISPNSLALGYPARVIKKLDGVGELQTSFNDT”: “failed”; for “MLVAAQQQGPPMPRPSHLMILALTAAALYIYALASDNTMLALMAKPIPVLALIAWLRSTPVSPYRTWISIGLGFSVLGDILLAIPADLFVFGLAAFLCAHLAYLRGYCGITLRPALPALIFSAITGIALLGVLASNGLGPLLIPVALYALAISAMLWRALACGGVAALGAGLFVFSDSLIGIDRFISPFAAAPYLIILAYWLGQWAIASSVGHRSTDKVLTQSGARRTESC”: “failed”.
Regarding “MRAEADPEFAAVAERIHANVGRQGFMNLVGAELSELSRGTCTIAVERRPELLQQHGFFHGGVTAFLVDNATTIAAATSRGQPALTAEYKLNLLSPAVGEKLICRARVIKPGRQVSVVAADVFCVSDGVEKHTATALASIAMLSEDVAAKTKSPAA”, the protein production entry is on record as “failed”.
In the case of “VADASDPIRPLVEALNAEAPLKLWSVLVTCLGDVSRDGVIEVSGVALSSFVERMGLQPQAMRVALHRLKRDGWVESRRLGRVGFHRLSDSALTQTRAVAGRIYGPGAGPAPWHLAGMPPDAPDGLSLLPDTLSATPISRRFALICGPLEDVPEDWLLTAPSGRGLPVWVQDVVVEAGCEAEFKALERTLAQIDKVPDTRLERFTLRVLVLHAWRRLILRSSPAAEAALGGARAEISCRARVHQLLDQLGSVEPDWDLPATEDAAS”, the protein production entry is on record as “not failed”.
“MILNTEEYPISIGNEIKYTKEVYDCLQLLRLRTILKEYEVNLILDVGANEGQFASVLRDIGYVGTIISFEPLSKEYRLLSQAASKDSNWYTYNLALGKQNKEQILHVSDKSTFSSFLLSNSLCEQRFGKESIGDKNEVVSVRRLDNFLVEVVKNIDKMRIYLKMDTQGYDLEVFSGAGTLLKNIVALQSEVSVVPIYHSMPDMLYSISLFQEAGFSLSGMYPVTYVKPTLQVIEFDCLMVKADTKIS”: the protein production entry was “failed”.
As for “MLFTNLDGVRNVVPVGHRQRRARPVGAGDVRAEKSLRYHLQEHGRLPLNEAVAVLSDVAEALADLKDREIVHRDLKPENILLLGGRRCLADFGIARYAEATIAKHTLKLAGTLAYMAPERWNNQRAASASDIYAPGVVAYELLEETPPFTGPYEHDYHDQHLHGPVRPSPQLRPSWRR”, the entry is “failed”; as for “MIETPSLVDQYCHGVLRTELGLGTFEAQLARTEGPPAPGTTLFDTQTGFAVRRWCPPLLGLEPHCPPARYLARRRELGVMEADRRLLRGSGITTYLVDAGLPGDLTGPTEMATAADADTREIVRLELLAEQVADTSGTVESFLANLAEAVHGAAVNAVAFTSVAGVRHGLALAPEPPGPGEVRGAAARWLTGREVGGELSDPVLLRHLLWIAVASGLPLQLHAGLGEPGLRIDRTDPVLLTDFVRTTAGLGTDLVLLHGYPYHRHAAHLAGVFPHVYADSGAALVRTGARAATVLAEILELAPFGKILFSSGAQGLPELHVVAARLFREALGRVLGTWVAEGAWSPGDAQRVAAMIASGNAARVYGLE”, “failed”; as for “MAVYMLNMGIVFVWSWFAKMYGREDHRLPTGYRPNAILTVVPLASLIIVAGLRYKVGTDYHTYMLLYELAGKYNSIWEIFGFGTGKSSTDPGFTALLWILNQISADPALMFAVVAAITYIYIVKTLYVYGRPFELSMFLFIGMFHYYASFNGIRQYMAAAILFWAVRYLIDGKLVRYMIVVLICSLFHSSALIMIPVYFIVRRKAWSPVLWCLMLVFLAGTFLYQKFLSVFLVVLENSQYGHYEEWLMKNTNGMNVIKIIVLLLPLALAFCFREQLRKRWPEVDYIVNLCLIGFLFGILATKDVIFARFNIYFGLYQLILVPYFVRIFEPKSNALLYVLILICYFLYSFMLMPFDSSVLPYRTIFER”, “failed”.
As for “MFNDWRRVLALSGKALGAILFCEAVGLLAAWVTQTSVTTWYPTLTKPSFTPPNWVFAPAWTTLYALMGVAAFLVWRCGPDRTRVRTALTAFGLQLAANAGWSFAFFGARSPALGLVVILGLWGLLAWTMDRFFRVRPVAGWLLVPYLAWVTYALALNAAIWGLN”, the entry is “failed”; as for “MAAMPKPAAFWNDRFANEEYVYGEAPNRFVASAARTWLPEAGEVLLLGAGEGRNAVHLAREGHTVTAVDYAVEGLRKTERLATEAGVEVEAIQADVREWKPARAWDAVVVTFLHLPADERPGLYRLVQRCLRPGGRLVAEWFRPEQRTDGYTSGGPPDPAMMVTADELRGHFAEAGIDHLEAAEPTLDEGMHRGPAATVRLVWCRPSTSLEHHHHHH”, “not failed”.
As for “MEIVQEGIAKIIVPEIPKTVSSDMPVFYNPRMRVNRDLAVLGLEYLCKKLGRPVKVADPLSASGIRAIRFLLETSCVEKAYANDISSKAIEIMKENFKLNNIPEDRYEIHGMEANFFLRKEWGFGFDYVDLDPFGTPVPFIESVALSMKRGGILSLTATDTAPLSGTYPKTCMRRYMARPLRNEFKHEVGIRILIKKVIELAAQYDIAMIPIFAYSHLHYFKLFFVKERGVEKVDKLIEQFGYIQYCFNCMNREVVTDLYKFKEKCPHCGSKFHIGGPLWIGKLWDEEFTNFLYEEAQKREEIEKETKRILKLIKEESQLQTVGFYVLSKLAEKVKLPAQPPIRIAVKFFNGVRTHFVGDGFRTNLSFEEVMKKMEELKEKQKEFLEKKKQG”, the entry is “not failed”.
As for “HALGAPVLRVEGLSQAGHFRNVSFEVRAGEVLGITGLLGSGVKELVECLFGLEQPDAGSVTIDGEVRRFANPGRAVQGRVALVPEDRRAHGVATDMSVRDNITIASLERYMTRGFVSRARENEAVDGFIRELSIKTPHRDQLVRNLSGGNQQKVALAKWLSCQSRVYVLDEPTVAVDVGAKVEIYTLLNRLAAEGAAILFLSSDLLEIAGFCDRALVVYRGTLNGEFAGETLDSDLLLAAASGARAQRKEA”, the protein production entry is listed as “failed”.
The same measure for “MERSAFMELDAGSRLVMHLREWPALLVSSTGWTEFEQLTLDGHNLPSLVCVITGSVDLGVCLHMSSSGLDLPMKVVDMFGCCLPVCAVNFKCLHELVKHEENGLVFEDSEELAALQMLFSNFPDPAGKLNQFWKDLRESQQLRWDESWVQTVLPLVMDIQLLGQRLKPRDPCCPSRSFFSESQGKPF”: “failed”; for “MKENLELVEFFEYLLILVLNMLVASIVFLQEYCIGSIRLSHYRRIFATVMAIRSLVSIWIIYPMTATLLGTLNILVIQSIILLFLWGLMQCVKKYRGKWYITMIALIIYGLSCYFHIMYAKTV”: “failed”; for “MTVVWINGAFGAGKTTTARELIELIPNSTLFDPEVVGGALAHLLPPKRLAEVGDFQDLPIWRRLVIDTAAALLADLGGTLVVPMTLLRQEYRDEIFGGLAARRIEVRHILLAPAETILRERIASREVPRDLPDGELRTRQWSYDHIEPYRAALASWLTADAHPVDTGALTPYEAAARVAEAVGSGAVPACEIVQTPEPTGETVAAGVLLFDERDRVLLVDPTYKPGWEFPGGVVEPGEAPARAGMREVAEETGLSLRDVPALLVVDWEPPAPPAYGGLRLLFDGGRLDAADAGRVLLPGPELRDWRFATEDEAAGLLPPVRYERLRWALRARERGAAHYLEAGTPVGLEHHHHHH”: “failed”.
“MKSLVKVSLAALALAFAVSAYAAEKELIVATDTAFVPFEFKQGDKYVGFDIDLWDAIAKKLDLKYTLKPMDFSGIIPALQTKNVDLALAGITITDERKKAVDFSDGYYNSGLLVMVKADNNDIKSEADLQGKVLAVKSGTGSVDYAKANIKTKDLRQFPNIDNAYLELGTGRADAVLHDTPNILYFIKTAGNGQFKAVGESIKAQQYGVAFPQGSDLREKVNAALKSLKEDGTYAEIYKKWFGVEPK”: the protein production entry is on record as “failed”.
